Experimental data published in publication PMC4866044.

Legend:
Cy3-labelled Crm1 = Cy3-labelled Crm1 (UniProt O14980); assay: MST; details: Cy3-labelled Crm1 20 nM; RanBP2-3/4 fragments 0.3 nM-10 μM; no RanQ69L; laser-power 70%, LED-power 20%; parent: est. 0.94; read off a plot
[1] = biological target: HA-RanBP2 mFG1/2, full-length (human) (UniProt P49792); assay: co-IP; αHA-agarose immunoprecipitation from nocodazole-arrested HEK293T cells depleted of endogenous RanBP2 by siRNA and transfected with HA-RanBP2 constructs; Crm1 blot normalised to HA-RanBP2, three biological replicates

Row | other: fraction of bound Crm1-Cy3 at the highest RanBP2-3/4 concentration (10,000 nM) (Cy3-labelled Crm1) | reduction of co-immunoprecipitated Crm1 against wild-type HA-RanBP2 [1] | Substance
1 | 0.04 | – | RanBP2-3/4-His (aa 2,304–3,062), free fragment (from UniProt P49792) mFG12 (= mFG1/2, 11 F to S mutations in both FG-repeat patches; positions not printed)
2 | – | 40% | Crm1, endogenous (HEK293T) (from UniProt O14980 1-1071) (natural protein)
